# Where a chain is given by its changes, count along the chain named. Numbers in names are those of the source.
# T1: SH3BP5 (10–276) (human, UniProt O60239 10-276)
# T1 construct: Residues 10–41 and 268–276 were invisible in the electron density; The purification of this construct and of the complex is not described; also called wild-type SH3BP5 (10–276); source: E. coli Rosetta (DE3)
# T1 sequence (looked up): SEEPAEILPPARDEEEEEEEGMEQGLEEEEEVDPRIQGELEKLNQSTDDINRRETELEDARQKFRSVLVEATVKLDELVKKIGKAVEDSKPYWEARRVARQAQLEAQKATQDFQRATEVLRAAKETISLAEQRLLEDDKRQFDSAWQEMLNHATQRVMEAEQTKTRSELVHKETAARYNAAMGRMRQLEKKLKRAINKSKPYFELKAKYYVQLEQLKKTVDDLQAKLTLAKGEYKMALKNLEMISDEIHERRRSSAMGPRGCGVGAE
# B1: SH3BP5 (41–266; R260A/R261A/R262A) (domain or fragment)
# chain: VDPRIQGELEKLNQSTDDINRRETELEDARQKFRSVLVEATVKLDELVKKIGKAVEDSKPYWEARRVARQAQLEAQKATQDFQRATEVLRAAKETISLAEQRLLEDDKRQFDSAWQEMLNHATQRVMEAEQTKTRSELVHKETAARYNAAMGRMRQLEKKLKRAINKSKPYFELKAKYYVQLEQLKKTVDDLQAKLTLAKGEYKMALKNLEMISDEIHEAAASSAM
# B2: SH3BP5-RA E251A (domain or fragment)
# chain: B1 chain with E211A
# B3: Rab11a (1–173) (domain or fragment, human, UniProt P62491 1-173, looked up)
# chain: MGTRDDEYDYLFKVVLIGDSGVGKSNLLSRFTRNEFNLESKSTIGVEFATRSIQVDGKTIKAQIWDTAGQERYRAITSAYYRGAVGALLVYDIAKHLTYENVERWLKELRDHADSNIVIMLVGNKSDLRHLRAVPTDEARAFAEKNGLSFIETSALDSTNVEAAFQTILTEIY
# notes: human Rab11a, residues 1–173; Nucleotide-free in the complex structure (a phosphate ion on the P loop); loaded with Mant-GDP in the GEF assay; source: E. coli Rosetta (DE3), purified (Ni-NTA, Ulp1 cleavage, Superdex200, second Ni-NTA); not shown: His6-SUMO, N-terminal, cleaved
# What was measured:
# [1] = target: Rab11a (1–211) L38A (human) (UniProt P62491)
# [2] = target: Rab11a (1–211) S42A (human) (UniProt P62491)
# [3] = target: Rab11a (1–211) K41A (human) (UniProt P62491)
# [4] = target: Rab11a (1–211) E39A (human) (UniProt P62491)
# [5] = target: Rab11a (1–211) S40A (human) (UniProt P62491)
# Rab11a (1–173) (human) = Rab11a (1–173) (human) (UniProt P62491)
# SH3BP5 (10–276) = target: T1, SH3BP5 (10–276); assay: crystal structure; SH3BP5 (10–276)–Rab11a (1–173) complex at 6.2 g/l, sitting drop vapor diffusion at 20°C; reservoir 0.4–0.75 M NaCl, 0.1 M NaH2PO4 (pH 6.8), 15–17% PEG2000; 3.8 Å; four complexes in the asymmetric unit; conditions: both partners purified
binder,measurement,setting,value
B1,"GEF activity: Mant-GDP release from Rab11a by fluorescence, with GppNHp (% of the wild-type activity)",[1],50
same,"GEF activity: Mant-GDP release from Rab11a by fluorescence, with GppNHp (% of the wild-type activity)",[2],25
same,"GEF activity: Mant-GDP release from Rab11a by fluorescence, with GppNHp (% of the wild-type activity)",[3],25
same,"GEF activity: Mant-GDP release from Rab11a by fluorescence, with GppNHp (% of the wild-type activity)",[4],50
same,"GEF activity: Mant-GDP release from Rab11a by fluorescence, with GppNHp (% of the wild-type activity)",[5],25
B2,"GEF activity: Mant-GDP release from Rab11a by fluorescence, with GppNHp (%, relative to wild type)",Rab11a (1–173) (human),50
B3,binding result,SH3BP5 (10–276),binds
